Test results from the nanobody polyreactivity screen of Harvey et al. (2022).

Test: yeast display, Sf9 membrane polyspecificity reagent, FACS + sequencing; frameworks hold sequencing errors
Method in brief: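 A synthetic nanobody library was expressed on Saccharomyces cerevisiae BJ5465 by galactose induction for 36–48 hours. The library was stained for 1 hour at 4 °C with 10% biotinylated, detergent-solubilized Sf9 membrane reagent and enriched with streptavidin microbeads before FACS. Low and high (top ~1%) gates were set on anti-HA fluorescence for expression and streptavidin fluorescence for reagent binding, and each polyreactivity label reflects the gate of origin.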

Sequence	polyreactivity (PSR sort gate)
QVQLVESGGGLVQAGGSLRLSCAASGSTFRWYTMGWYRQAPGKERELVATISSSTDITYYADSVKGRFTISRDNAKNTVYLQMNSLKPEDTAVYYCAARRVYHYRYYYWGQGTQVTVSS	high polyreactivity
QVQLVETVGGLLQAGGSLRLSCPASGSTLYYNTMGWYRQAPGKERELVATISSRGGRTHYADSVKGRFTISRDNAKNTVYLQMNSLKPEDTAVYYCNALPRVVYTVGQSPFYYWGQGTQVTVSS	high polyreactivity
QFQLVESGGGLVQAGGSLRLSCAASGRTFVINAMGWYRQAPGKERELVAAISRGGSRTFYADSVKGLFTISRDTAKNTVYLQMNSLKPVDTAVYYCNAVAQSGRYDYWGQGTQVTVSS	high polyreactivity
QVQLVESGGGLVQAGGSLRLSCAASGSTFYSYAMGWYRQAPGKEREFVAVISWSGGRTRYADSVKGRFTISRDNAKNTVYLQMKSVKPEDTAVYYCNARKWGYSPHRKGDRHFEYWGQGTQVTVSS	low polyreactivity
QVQLVESGGGLVQAGGSLRLSCAASGSIIRGYAIGWFRPAPGKERELVAAITSSGGSTYYADSVKGRFTISRDNAKNTVYLQMNSLKPEETAVYYCTKYRYSYKYNYWGQGTQVTVSS	high polyreactivity
QVQLVESGGGLVQAGGSLRLSCAASGSPFLTNAMGWDRQAPGKERELVAAITWSTGSTYYADSVKGRFTISRDNAKNTVYLQMNSLKPEDTAVYYCNARSEVSYWWGGYWGEGTQVTVSS	low polyreactivity
QVQLVESGGGLVQAGGSLRLSCAASGSTFRYYAMGWYRQAPGKERELVAAISARGTSTYYADSVKGRFTISRDNAKNTVYLQMNSLKPEDTAVYYCNDYLHATEYDYWGQGTQVTVSS	high polyreactivity
QVQLVESGGGLVQAGGSLRLSCAASGYTFTSNAMGWYRQAPGKERELVAAITNVGSTNYADSVKGRFTISRDNAKNTVYLQMNSLKPEDTAVYYCAADWDAVYLQTADYDYWGQGTQVTVSS	low polyreactivity
QVQLVESGGGLVQAGGSLSLSSAASGRTFSGYAMGWYRQAPGKERELVAAIDRGDGTNYADSVKGRFTISRDNAKNTVYLQMNSLKPEDTAVYYCAADYSYGSTSHTYTGFDYWGQGTQVTVSS	low polyreactivity
QVQLVESGGGLVQAGGSLRLSCAASGSTFIYYVKGWYRQAPGNERELVAAISGRTGSTYYADSVKGRFTISRDNAKNTVYLQMNSLTPEDTAVYYCAKRGFLYWDHVSGFYRYDYWGQGTQVTVSS	low polyreactivity
QVQLVESGGGLVQAGGRLRLSCAASGGIIWAYAMGRYRQAPGKERELVAAISSSTGTTYYADSVKGRFTISRDNAKNTVYLQMNSLKPEETAVYYCAAYAYIGDYVSYYGGDYWGQGTQVTVSS	low polyreactivity
LVHLVESGGGLVQAGGSLRLSCAASGITFTGYAMGWYRQAPGKERELVAAITWSSGSTYYADSVKGRFTISRDNAKNTVYLQMNSLKPEDTAVYYCNAGYWYDGPDYIPEYDYWGQGTQVTVSS	low polyreactivity
QVQLVESGGGLVQAGGSLRLSCAASGSTFKWYAMGWYRQAPGKERELVAAISSRGGSTYYADSVKGRFTISRDNAKNTVYLQMNSLKPEDTAVYYCNALVRPQWSYNDFDYWGQGTQVTVSS	high polyreactivity
QVQLVESGGGLVQAGGSLRLSCAASGSTLNRNVMGSYRQAPGKERELVAVITYGVGSTYYADSVKGRFTISRDNAKNTVYLQLNSLKPEDTAVYYCNKDPLVFDYWGQGTQVTVSS	low polyreactivity
QVQHVESGGGLVQAGGSLRLSCAASGNTFSANAMGWYRQAPVKEREFVASITWSGGSTYYADSVKGRFTFSRDNAKNTVYLQMNSLKPEDTAVYYCAAESWFKYDYWGQGTQVTVSS	low polyreactivity
QVQLVESGGGLVQAGGGLRLSCAASGSIFLINAMGWYRQAPGKERELVAAITSGSSTNYADSVKGRFTISRDNAKNTVYLQMNSLKPEDTAVYYCAASTPYSYRYDYWGQGTQVTVSS	low polyreactivity
QVQLVESGGGLVQAGGSLRLSCAASGIIIRYYGMGWYRQAPGKERELVARIRWTGGSTYYADSVKGRFTISRDNAKNTVYLQMNSLKPEDTAVYYCAAAWWSYKFNRDFDYWGQGTQVTVSS	low polyreactivity
QVQLVESGGGLVQAGGSLRLSCAASGRTIRYYAMGWYRQAPGKERELVAAITQNGGRTYYADSVKGRFTISRDNAKNTVYLQMNSLKPEDTAVYYCAKAFIQPGYKYDSWGQGTQVTVSS	high polyreactivity
QVQLVESGGGLVQAGGSLRLSCAASGSTFQGNAMGWYRQAPGKERELVAAISRSGGSTYADSVKGRFTMSRDNAKNTVYLQMNSLKPEDTAVYYCAAYSGVGYLWFDYWGQGTQVTVSS	low polyreactivity
QVQLVESGGGLVQAGGSLRLSCAASGSTFYAKAMGLYRQAPGKEREFVAVITQSGGSTYYADSVKGRFTISRDNAKNTVYLQMNSLKPEDTAVYYCAKTHYRRSLSMYYWGQGTQVTVSS	low polyreactivity
QVQLLESGGGLVQAGGSLRLSCAASGRTFAWNAMGWYRQAPGNERELVARLRSSGSTYYADSVKGRFTISRDNAKNTVYLQMNSLKPEDTAVYYGAKKWGWFPVYYWGQGTQVTVSS	high polyreactivity
QVQLVESGGGLVQAPGSLRLSSAASGRIFNQYGMGWYRQAPGKERELVAAIRSGDSTNYADSVKGRFTISRDNAKNTVYLQMNSLKQEDSAVYYCARDRPGDYAGYYYWGKGTQVTVSS	low polyreactivity

Sequence	polyreactivity (PSR sort gate)
QVQLVESGRGLVQAGVSLRLSCAASGRIFTYYAMGWYRQAPGKERELVAAITTRGGRTRYADSVKGRFTISRDNAKITVYLQMNSLKPEDTAVYYCARGHSSVGPQYDYWGQGTQVTVSS	high polyreactivity
QVQLVESGGGLVQAGGSLRLSCAASGRISESNDMGWYRPAPGKERELVAAISSSGGSTYYADSVKGRFTISRDNAKNTVYLQMNSLKPEDTAVDYCNAVYYRTVLKIGVYEYDYWGQGTQVTVSS	low polyreactivity
QVQLVESGGGLVQAGGSLRLSCAASGSIFYVNAMGWYRQAPGKESELVAAISFSGGTTYYADSVKGRFTISRDNAKNTVYLQMNSLKPEDTAVYYCNTPSSREMDYWGQGTQVTVSS	low polyreactivity
QVQLVESGGGLVQAGGSLRLSCAASGLTFLWYAMGWYRQAPGKERELVAAITSGGRTKYADSVKGRFTISRDNAKNTVYLQMNSLKPEDTAVYYCAAYTQWWGYDYWGQGTQVTVSS	high polyreactivity
QVQLVESGGGLVQAGGSLRLSCAASGSTFFGNAMGWYRQAPGKERELVAAITSGGSTNYADSVKGRFTISRDNAKNTVYLQMNSLKPEDTAVYYCAKEYHYYYWGQGTQVTVSS	low polyreactivity
QVQHVESGGGLVQAGGSRRLSCAASGRTFREYAMGWYRQAPGKERELVAAISDSGDSTYYADSVKGRFTISRDNAKNTVNLQMNSLKPVHTAVYYCAADYYDYEYDYWGQGTQVTVSS	low polyreactivity
QVQLVESGGGLVQAGGSLRLSCAASGITFYRYAMRWYRQAPGKERELVAAISRSGGSTYYADSVKGRFTISRDNAKNTVYLQMNILKPEDTAVYYCAAYILGNRDGYDYWGQGTQVTVSS	high polyreactivity
QVQLVESGGGLVQAGGSLRLSCAASGSILIHYTMGWYRQAPGKERELVAAISSTGGSTYYADSVKGRFTISRDNAKNTVYLQMNSLKPEDTAVYYCNAKQYWYYFWAYQQRDVESDYWGQGTQVTVSS	low polyreactivity
QVQLVESGGGLVQAGGSLRLSCAASGRTFGRYAMGWYRKAPGKERELVAAISCSGGSTYYADSVKGRFTISRDNAKNTVYLQMNSLKPEDTAVYYCAADWRQGLWYGYYYWGQGTQVTVSS	low polyreactivity
QVQLVESGGVLVQAGRSLRLSCAASGSPFRIYAMGWYRQAPGKERELVAAISSGGRTNYADSVKGRFTISRDNAKNTVYLQMNSLKPEDTAVYYCATVGYSSSTSGNRYGRAYYYWGQGTQVTVSS	high polyreactivity
QVQLVESGGGLVQAGGSLRLSCAASGRIFGGNAMGWYRPAPGKERELVAAISKRGGSTYYADSVKGRFTISRDNAKNTVYLQMNSLKPEDSAVYYCAATAYADQGLDYGYWGQGTQVTVSS	high polyreactivity
QVQLVESGGGLVQAGGSLRLSCAASGIIFKPYAMGWYRPAPGKERQLVAAITVNGGTTYYADSVKGRFTISRDNAKKTVNVQMNSLKPEDPAFYYCNRGRPGGPSWYHYDYWGQGTEVTVSS	high polyreactivity
QVQLVESGGGLVQAGGSLRLSCAASGFIIDGYAMGWYRQAPGKERELVAVISQRGSNTYYADSVKGRFTISRDNAKNTVYLQMNSLKPEDTAVYYCAARYKQGDSTGGRMNYWGQGTQVTVSS	high polyreactivity
QVQLVESGGGLVQAGGSLRLSCAASGSTFGRKAMAWYRQAPGKEMELVAVISKSGGSTYYADTVKGRFTISRDNAKNTVYLQMNSLKPEDTAVYYCAASLKYRRRMGYWGQGTQVTVSS	high polyreactivity
QVQLVESCGGLVQAGGSLRLSCAASGRIFLVYAMGWYRQAPGKERELVAAISWSTGSTYYADSVKGRFTISRDNAKNTVYLQMNSLKPEDTAVYYCAAEPELDEFEHDYWGQGTQVTVSS	low polyreactivity
QVQLVESGGGLVQAGGSLRLSCAASGRIFVYYTMGWYRQAPGKERELVAAISTGGRTHYADSVKGRFTISRDNAKNTVYLQMNSLKPEDTAVYYCNAASWNGGLFQTKYGYWGQGTQVTVSS	high polyreactivity
QVQLVESGGGLVQAGGSLRLSCAASGSTFIYYTMGWYRQAPGKERELVAASSWSGGNTYYADSVKGRFTISRDNAKNTVYLQMNSLKPEDTAVYYCAATRFSQYDWGQGTQVTVSS	high polyreactivity
QVQLVESGGGLLQAGGSLRLSCAASGIILYWNTMGWYRQAPGKERELVAAITWSVGRTYYADSVKGRFTISRDNAKNTVYLQMNSLKPEDTAVYYCNAGYDSYSRDYWGQGTQVTVSS	low polyreactivity
QVQLVESGGGLVQAGGSLRLSCAASGSTFFSYAMGWYRQAPGKERELVAAISWIDDGTYYADSVKGRFTISRDNAKNTVYLQMNSLKPEDTAVYYCAADIGAYRTWDYEYWGQGTQVTVSS	low polyreactivity
QVQLVESGGGLVQAGGSLRLSCAASGSTFNANAMGWYRQAPGKERELVAGISSGGSTYADSVKGRFTISRDNAKNTVYLQMNSLKPEDSAVYYCNADYYSWYPTFYWYDYWGQGSQVTVSS	high polyreactivity
QVQLVESGGGLFQAGGSLRLSCAASGNIFAYNAMGWYRQAPGKERELVASIRYSGGSTYYADSVKGRFTISRDNAKNTVYLQINSLKPEDTAVYYCAKRGYSSYRTYNYWGQGTQVTVSS	high polyreactivity
